Test system: PAR1
Assay: PI hydrolysis in hippocampal slices
Assay type: cell-based, mouse
Excerpt: PAR1 is a seven transmembrane G-protein coupled receptor that stimulates G-alpha-q to initiate phosphatidyl inositol (PI) hydrolysis. To ensure that PAR1 is functional in regions of the brain that are subject to ischemic damage in the mouse transient focal ischemia model, we tested the ability of several activators of PAR1 to initiate PI hydrolysis (Chung et al., 1997) in the hippocampus and striatum.
Since tPA activates plasminogen to form plasmin, we tested whether exogenously applied tPA could activate endogenous plasminogen in brain slices to form plasmin and activate PAR1.

[1] = wild type hippocampus / hippocampal slices

Molecule	PI hydrolysis [1]	PI hydrolysis (plasminogen-deficient mice)	inhibition of tPA-induced increase in PI hydrolysis (wild type hippocampal slices)
plasmin: serine protease involved in blood clotting that can activate PAR1 (protein, UniProt P00747 20-580; P00747 581-810, looked up, plasmin) Plasmin heavy chain A: EPLDDYVNTQGASLFSVTKKQLGAGSIEECAAKCEEDEEFTCRAFQYHSKEQQCVIMAENRKSSIIIRMRDVVLFEKKVYLSECKTGNGKNYRGTMSKTKNGITCQKWSSTSPHRPRFSPATHPSEGLEENYCRNPDNDPQGPWCYTTDPEKRYDYCDILECEEECMHCSGENYDGKISKTMSGLECQAWDSQSPHAHGYIPSKFPNKNLKKNYCRNPDRELRPWCFTTDPNKRWELCDIPRCTTPPPSSGPTYQCLKGTGENYRGNVAVTVSGHTCQHWSAQTPHTHNRTPENFPCKNLDENYCRNPDGKRAPWCHTTNSQVRWEYCKIPSCDSSPVSTEQLAPTAPPELTPVVQDCYHGDGQSYRGTSSTTTTGKKCQSWSSMTPHRHQKTPENYPNAGLTMNYCRNPDADKGPWCFTTDPSVRWEYCNLKKCSGTEASVVAPPPVVLLPDVETPSEEDCMFGNGKGYRGKRATTVTGTPCQDWAAQEPHRHSIFTPETNPRAGLEKNYCRNPDGDVGGPWCYTTNPRKLYDYCDVPQCAAPSFDCGKPQVEPKKCPGR Plasmin light chain B: VVGGCVAHPHSWPWQVSLRTRFGMHFCGGTLISPEWVLTAAHCLEKSPRPSSYKVILGAHQEVNLEPHVQEIEVSRLFLEPTRKDIALLKLSSPAVITDKVIPACLPSPNYVVADRTECFITGWGETQGTFGAGLLKEAQLPVIENKVCNRYEFLNGRVQSTELCAGHLAGGTDSCQGDSGGPLVCFEKDKYILQGVTSWGLGCARPNKPGVYVRVSRFVTWIEGVMRNN	increased PI hydrolysis		
tPA: tissue plasminogen activator; activates plasminogen to form plasmin; thrombolytic agent (protein, UniProt P00750 36-562, looked up) Tissue-type plasminogen …: SYQVICRDEKTQMIYQQHQSWLRPVLRSNRVEYCWCNSGRAQCHSVPVKSCSEPRCFNGGTCQQALYFSDFVCQCPEGFAGKCCEIDTRATCYEDQGISYRGTWSTAESGAECTNWNSSALAQKPYSGRRPDAIRLGLGNHNYCRNPDRDSKPWCYVFKAGKYSSEFCSTPACSEGNSDCYFGNGSAYRGTHSLTESGASCLPWNSMILIGKVYTAQNPSAQALGLGKHNYCRNPDGDAKPWCHVLKNRRLTWEYCDVPSCSTCGLRQYSQPQFRIKGGLFADIASHPWQAAIFAKHRRSPGERFLCGGILISSCWILSAAHCFQERFPPHHLTVILGRTYRVVPGEEEQKFEVEKYIVHKEFDDDTYDNDIALLQLKSDSSRCAQESSVVRTVCLPPADLQLPDWTECELSGYGKHEALSPFYSERLKEAHVRLYPSSRCTSQHLLNRTVTDNMLCAGDTRSGGPQANLHDACQGDSGGPLVCLNDGRMTLVGIISWGLGCGQKDVPGVYTKVTNYLDWIRDNMRP	significantly increased PI hydrolysis	did not increase PI hydrolysis	
alpha-2-antiplasmin: plasmin inhibitor (protein, UniProt P08697 40-491, looked up) Alpha-2-antiplasmin: NQEQVSPLTLLKLGNQEPGGQTALKSPPGVCSRDPTPEQTHRLARAMMAFTADLFSLVAQTSTCPNLILSPLSVALALSHLALGAQNHTLQRLQQVLHAGSGPCLPHLLSRLCQDLGPGAFRLAARMYLQKGFPIKEDFLEQSEQLFGAKPVSLTGKQEDDLANINQWVKEATEGKIQEFLSGLPEDTVLLLLNAIHFQGFWRNKFDPSLTQRDSFHLDEQFTVPVEMMQARTYPLRWFLLEQPEIQVAHFPFKNNMSFVVLVPTHFEWNVSQVLANLSWDTLHPPLVWERPTKVRLPKLYLKHQMDLVATLSQLGLQELFQAPDLRGISEQSLVVSGVQHQSTLELSEVGVEAAAATSIAMSRMSLSSFSVNRPFLFFIFEDTTGLPLFVGSVRNPNPSAPRELKEQQDSPGNKDFLQSLKGFPRGDKLFGPDLKLVPPMEEDYPQFGSPK			inhibited the tPA-induced increase in PI hydrolysis
